Experimental findings from patent publication US20170360778, “Methods for Treating a Cytomegalovirus Infection” (The J. David Gladstone Institutes, published 2017) are described below.

This data set addresses T1, IE2 (IE86) MBP fusion (Human cytomegalovirus, UniProt P19893 P19893:1-580).
T1 sequence: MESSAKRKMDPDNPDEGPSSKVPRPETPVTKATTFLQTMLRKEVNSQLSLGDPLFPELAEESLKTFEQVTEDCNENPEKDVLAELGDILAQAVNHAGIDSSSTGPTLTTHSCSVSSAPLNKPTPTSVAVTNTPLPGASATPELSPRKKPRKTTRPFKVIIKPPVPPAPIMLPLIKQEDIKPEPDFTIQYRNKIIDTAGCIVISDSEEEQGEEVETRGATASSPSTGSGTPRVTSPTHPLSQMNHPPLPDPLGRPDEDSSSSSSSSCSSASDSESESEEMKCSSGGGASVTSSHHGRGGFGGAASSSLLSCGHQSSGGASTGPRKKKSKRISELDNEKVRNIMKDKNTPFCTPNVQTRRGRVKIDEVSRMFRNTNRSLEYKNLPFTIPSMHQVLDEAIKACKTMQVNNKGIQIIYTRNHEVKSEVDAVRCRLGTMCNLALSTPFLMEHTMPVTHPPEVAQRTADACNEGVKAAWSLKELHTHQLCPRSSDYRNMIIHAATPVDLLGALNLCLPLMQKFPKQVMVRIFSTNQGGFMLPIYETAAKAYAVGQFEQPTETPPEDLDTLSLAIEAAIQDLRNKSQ
Briefly: EMSA; IE2-CRS EMSA in presence of various amounts of Hoechst 33258 (BB33258); exact probe sequence not stated, CRS core given. As to conditions: tags: MBP fusion, expressed in E. coli BL21, amylose column. Background: In EMSA bound probe runs differently from free probe, usually more slowly.

B1: hCMV CRS (IE2 binding site) (dsDNA)
DNA 1: TCGTTTAGTGAACCG
DNA 2: CGGTTCACTAAACGA
Consider B1, for which the binding result was “binds”.
